Reference: the supplement of paper PMC10567573

B1: MYBL2 (parent)
chain: FPNRTDQQCQYRWLRVLNPDLVKG
B2: PTPRD (parent)
chain: PVVSMDLDPQPITDEEEGLIWVVG

Variants of: B1
Assay: protein stability index of a GFP-peptide fusion (GPS, HEK-293T) (PSI 1-6); higher = more stable
Conditions: c terminus: a fixed tail appended
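Note: lentivirally expressed fusions sorted by FACS into six bins by GFP to DsRed ratio, PSI derived from sequencing read proportions per bin multiplied by bin number.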

Protein stability index, by site and new letter:
K23: M 1.5, W 1.27, H 1.7, I 1.95, A 1.22, D 1.97, S 1.26, Y 1.38, G 1.8, C 3.33, R 2.21, Q 2.1, P 2.06, F 2.47, V 1.4, L 1.64, T 1.59, E 1.89, N 2.11
V22: H 2.74, N 2.01, S 2.25, A 1.71, Y 2.01, F 1.59, D 2.02, G 2, I 2.04, K 1.64, T 1.95, E 1.55, P 1.83, W 2.11, L 2.21, M 2.08, Q 1.54, R 1.66, C 1.79
P19: I 2.11, M 2.2, D 1.97, V 1.94, G 2.26, Y 2.02, E 1.85, S 2.06, R 1.84, T 1.67, W 1.63, Q 1.94, H 2.22, L 1.76, K 2.36, A 1.81, N 2.01, F 1.45, C 2.5
R15: L 1.98, Q 2.15, V 2.2, H 2.31, I 2.25, M 1, N 1.52, K 1.31, S 2, P 1.92, Y 2.14, W 2.96, G 2.18, T 1.45
N18: I 1.09, E 2.16, P 1.98, L 2.74, S 2.17, Y 2.16, R 3.02, V 1.61, A 2.17, W 2.05, C 2.8, K 1.68, Q 1.97, F 2.73, G 1.6, T 2.19, M 1.75, D 2.09
D20: S 2.24, A 2.13, I 1.74, K 2.06, C 1.83, Y 1.76, L 1.7, T 1.54, N 2.43, H 2.06, G 1.6, R 2.22, F 1.68, E 2.03, Q 1.78, M 1.89, W 2.27, V 1.14, P 2.35
V16: C 1.97, Y 1.72, T 2.13, M 1.78, Q 2.46, E 2.44, W 2.57, S 2.2, K 2.02, R 1.56, I 1.57, P 2.72, N 2.05, D 2.99, A 1.87, H 2.39, F 1.81, L 1.77, G 2.12
G24: E 2.02, W 1.55, D 1.94, N 2.44, Y 1.85, T 1.87, V 1.71, S 1.68, K 2.01, R 1.74, P 2.26, F 1.85, A 1.41, M 2.18, I 1.43, C 1.89, L 2.35, H 1.41, Q 1.91
L21: W 1.91, C 2.18, K 2.01, F 2.26, A 1.88, D 2.12, V 2.26, E 2.43, Y 1.98, H 1.48, P 2.83, I 2.85, M 2.27, Q 2.08, N 2.37, S 2.17, T 2.26, R 2.31, G 1.66
L17: M 1.95, F 1.41, A 2.41, K 2.47, N 2.28, H 1.6, D 1.91, V 2.04, R 2.28, G 2.45, T 1.63, P 2.56, I 2.01, C 1.79, E 2.32, Q 2.45, S 2.78, Y 1.34

Variants of: B2
Assay: as above
Conditions: c terminus: a fixed tail appended

Protein stability index: each site, then its substitutions
V22: G 4.92, F 2.54, S 4.7, C 3.9, E 5.47, T 4.26
T13: W 2.47, A 3.87, L 3.07, S 3.13, D 4.13, V 3.58
E16: A 3.22, C 1.94, D 4.08, S 3.36, T 2.87, Q 3.79
G18: N 4.42, H 3.52, R 3.28, C 2.63, L 3.16
P9: G 4.54, Y 3.41, A 2.88, K 3.71
S4: Y 1.99, E 5.11, T 3.73, P 4.45, N 4.01, G 4.17, M 2.75, I 2.28, R 3.82
D14: L 2.06, M 2.36, N 3.9, I 4.15, G 3.87, Y 2.27
W21: F 4.08, T 4.69, V 4.27
G24: C 1.85, S 3.36, V 1.7, H 3.87, W 1.41, K 4.06
I12: R 4.74, D 4.52, G 4.49, N 4.28, Y 2.86, S 3.64
D8: N 3.55, V 3.25, I 2.53, C 2.61, W 2.52, G 3.8
V2: A 4.31, E 4.23, H 3.67, L 3.93, S 4.51, P 4.05, R 4.6
E17: R 2.75, L 2.56, N 3.37, G 3.34, D 4.26, K 3.12, A 2.26, Q 4.18, T 3.31, P 2.38, V 1.75, M 1.69
L7: A 4.31, C 3.54, W 3.52, I 3.94, H 3.48, P 3.4, R 4.4, F 4.79
L19: E 4.54, A 4.6, N 4.57
I20: K 4.64, N 4.31, L 2.99, P 5.16, Q 4.95, H 4.32
M5: A 4.97, K 4.64, L 3.97, F 3.48, Y 3.54, W 3.51, C 4.64, S 3.77, R 4.31, H 4.66
P1: Q 3.81, W 2.17, L 1.79, Y 1.52
D6: N 4.53, Y 2.25, R 3.67, L 3.35, C 3.6, E 4.24
V3: M 3.61, E 4.81, W 4.09, G 3.98, H 3.38, K 3.48, Y 3.88, T 4.66, P 3.82
P11: N 3.36, F 3.25, H 3.8, C 3.36, T 3.77
Q10: P 3.75, G 3.99, R 3.89, N 3.42, L 3.74, K 3.76, M 3.88, W 3.8
V23: G 5.27, L 3.06, T 4.93, P 4.97
E15: N 3.67, P 3.19, S 2.9, R 3.57, G 3.21, Q 3.77
